Literature values, collected in patent US20200069786A1, “COMPOSITION AND PROCESS FOR PREPARING VACCINE” (TREOS BIO ZRT., priority 2018, published 2020).

B1: MAGE-A2 (protein, UniProt P43356 1-314, looked up)
Melanoma-associated antigen 2: MPLEQRSQHCKPEEGLEARGEALGLVGAQAPATEEQQTASSSSTLVEVTLGEVPAADSPSPPHSPQGASSFSTTINYTLWRQSDEGSSNQEEEGPRMFPDLESEFQAAISRKMVELVHFLLLKYRAREPVTKAEMLESVLRNCQDFFPVIFSKASEYLQLVFGIEVVEVVPISHLYILVTCLGLSYDGLLGDNQVMPKTGLLIIVLAIIAIEGDCAPEEKIWEELSMLEVFEGREDSVFAHPRKLLMQDLVQENYLEYRQVPGSDPACYEFLWGPRALIETSYVKVLHHTLKIGGEPHISYPPLHERALREGEE
B2: XAGE-1 (protein, UniProt Q9HD64 1-81, looked up)
X antigen family member 1: MESPKKKNQQLKVGILHLGSRQKKIRIQLRSQCATWKVICKSCISQTPGINLDLGSGVKVKIIPKEEHCKMPEAGEEQPQV
B3: SSX-5 (protein, UniProt O60225 1-188, looked up)
Protein SSX5: MNGDDAFVRRPRVGSQIPEKMQKAFDDIAKYFSEKEWEKMKASEKIIYVYMKRKYEAMTKLGFKATLPPFMRNKRVADFQGNDFDNDPNRGNQVEHPQMTFGRLQGIFPKITPEKPAEEGNDSKGVPEASGPQNNGKQLRPSGKLNTSEKVNKTSGPKRGKHAWTHRVRERKQLVIYEEISDPQEDDE
B4: SSX-3 (protein, UniProt Q99909 1-188, looked up)
Protein SSX3: MNGDDTFARRPTVGAQIPEKIQKAFDDIAKYFSKEEWEKMKVSEKIVYVYMKRKYEAMTKLGFKAILPSFMRNKRVTDFQGNDFDNDPNRGNQVQRPQMTFGRLQGIFPKIMPKKPAEEGNVSKEVPEASGPQNDGKQLCPPGKPTTSEKINMISGPKRGEHAWTHRLRERKQLVIYEEISDPEEDDE
B5: SPO11 (protein, UniProt Q9Y5K1 1-396, looked up)
Meiotic recombination protein …: MAFAPMGPEASFFDVLDRHRESLLAALRRGGREPPTGGSRLASSSEVLASIENIIQDIITSLARNEAPAFTIDNRSSWENIKFEDSVGLQMVSHCTTRKIKSDSPKSAQKFSLILKILSMIYKLVQSNTYATKRDIYYTDSQLFGNQTVVDNIINDISCMLKVSRRSLHILSTSKGLIAGNLRYIEEDGTKVNCTCGATAVAVPSNIQGIRNLVTDAKFVLIVEKDATFQRLLDDNFCNKLSPCIMITGKGVPDLNTRLLVKKLWDTFHVPVFTLVDADPHGIEIMCIYKYGSMSMSFEAHHLTVPAIRWLGLLPSDLKRLNVPKDSLIPLTKRDQMKLDSILRRPYVTCQPFWRKEMEIMADSKMKAEIQALTFLSSDYLSRVYLPNKLKFGGWI
B6: MORC1 (protein, UniProt Q86VD1 1-984, looked up)
MORC family CW-type zinc …: MDDRYPALQRAQLRLDFIHANSTTHSFLFGALAELLDNARDAGAERLDVFSVDNEKLQGGFMLCFLDDGCGMSPEEASDIIYFGRSKKRLSTLKFIGQYGNGLKSGSMRIGKDFILFTKKEETMTCVFFSQTFCEEESLSEVVVPMPSWLIRTRESVTDDPQKFAMELSIIYKYSPFKTEAELMQQFDVIYGKCGTLLVIYNLKLLLNGEPELDVKTDKEDILMAGALEDFPARWSFRAYTSVLYFNPWMRIFIQAKRVKTKHLCYCLYRPRKYLYVTSSFKGAFKDEVKKAEEAVKIAESILKEAQIKVNQCDRTSLSSAKDVLQRALEDVEAKQKNLKEKQRELKTARTLSLFYGVNVENRSQAGMFIYSNNRLIKMHEKVGSQLKLKSLLGAGVVGIVNIPLEVMEPSHNKQEFLNVQEYNHLLKVMGQYLVQYCKDTGINNRNLTLFCNEFGYQNDIDVEKPLNSFQYQRRQAMGIPFIIQCDLCLKWRVLPSSTNYQEKEFFDIWICANNPNRLENSCHQVECLPSIPLGTMSTISPSKNEKEKQLRESVIKYQNRLAEQQPQPQFIPVDEITVTSTCLTSAHKENTKTQKIRLLGDDLKHESLSSFELSASRRGQKRNIEETDSDVEYISETKIMKKSMEEKMNSQQQRIPVALPENVKLAERSQRSQIANITTVWRAQPTEGCLKNAQAASWEMKRKQSLNFVEECKVLTEDENTSDSDIILVSDKSNTDVSLKQEKKEIPLLNQEKQELCNDVLAMKRSSSLPSWKSLLNVPMEDVNLSSGHIARVSVSGSCKVASSPASSQSTPVKETVRKLKSKLREILLYFFPEHQLPSELEEPALSCELEQCPEQMNKKLKMCFNQIQNTYMVQYEKKIKRKLQSIIYDSNTRGIHNEISLGQCENKRKISEDKLKNLRIKLALLLQKLQLGGPEGDLEQTDTYLEALLKEDNLLFQNNLNKVTIDARHRLPLEKNEKTSEN
B7: CRISP2 (protein, UniProt P16562 22-243, looked up)
Cysteine-rich secretory …: KDPAFTALLTTQLQVQREIVNKHNELRKAVSPPASNMLKMEWSREVTTNAQRWANKCTLQHSDPEDRKTSTRCGENLYMSSDPTSWSSAIQSWYDEILDFVYGVGPKSPNAVVGHYTQLVWYSTYQVGCGIAYCPNQDSLKYYYVCQYCPAGNNMNRKNTPYQQGTPCAGCPDDCDKGLCTNSCQYQDLLSNCDSLKNTAGCEHELLKEKCKATCLCENKIY
B8: ADAM2 (protein, UniProt Q99965 175-735, looked up)
Disintegrin and …: DFAKYIEMHVIVEKQLYNHMGSDTTVVAQKVFQLIGLTNAIFVSFNITIILSSLELWIDENKIATTGEANELLHTFLRWKTSYLVLRPHDVAFLLVYREKSNYVGATFQGKMCDANYAGGVVLHPRTISLESLAVILAQLLSLSMGITYDDINKCQCSGAVCIMNPEAIHFSGVKIFSNCSFEDFAHFISKQKSQCLHNQPRLDPFFKQQAVCGNAKLEAGEECDCGTEQDCALIGETCCDIATCRFKAGSNCAEGPCCENCLFMSKERMCRPSFEECDLPEYCNGSSASCPENHYVQTGHPCGLNQWICIDGVCMSGDKQCTDTFGKEVEFGPSECYSHLNSKTDVSGNCGISDSGYTQCEADNLQCGKLICKYVGKFLLQIPRATIIYANISGHLCIAVEFASDHADSQKMWIKDGTSCGSNKVCRNQRCVSSSYLGYDCTTDKCNDRGVCNNKKHCHCSASYLPPDCSVQSDLWPGGSIDSGNFPPVAIPARLPERRYIENIYHSKPMRWPFFLFIPFFIIFCVLIAIMVKVNFQRKKWRTEDYSSDEQPESESEPKG
B9: CCDC62 (protein, UniProt Q6P9F0 1-684, looked up)
Coiled-coil domain-containing …: MNPPAAFLAGRQNIGSEVEISTIEKQRKELQLLIGELKDRDKELNDMVAVHQQQLLSWEEDRQKVLTLEERCSKLEGELHKRTEIIRSLTKKVKALESNQMECQTALQKTQLQLQEMAQKATHSSLLSEDLEARNETLSNTLVELSAQVGQLQAREQALTTMIKLKDKDIIEAVNHIADCSGKFKMLEHALRDAKMAETCIVKEKQDYKQKLKALKIEVNKLKEDLNEKTTENNEQREEIIRLKQEKSCLHDELLFTVEREKRKDELLNIAKSKQERTNSELHNLRQIYVKQQSDLQFLNFNVENSQELIQMYDSKMEESKALDSSRDMCLSDLENNHPKVDIKREKNQKSLFKDQKFEAMLVQQNRSDKSSCDECKEKKQQIDTVFGEKSVITLSSIFTKDLVEKHNLPWSLGGKTQIEPENKITLCKIHTKSPKCHGTGVQNEGKQPSETPTLSDEKQWHDVSVYLGLTNCPSSKHPEKLDVECQDQMERSEISCCQKNEACLGESGMCDSKCCHPSNFIIEAPGHMSDVEWMSIFKPSKMQRIVRLKSGCTCSESICGTQHDSPASELIAIQDSHSLGSSKSALREDETESSSNKKNSPTSLLIYKDAPAFNEKASIVLPSQDDFSPTSKLQRLLAESRQMVTDLELSTLLPISHENLTGSATNKSEVPEESAQKNTFVSY

Tested on: TSA
Settings: BRAIN

Molecule	TSA Expression Rate (ER) [%]
B1	28
B2	18
B3	0
B4	0
B5	12

Same assay, conditions: BREAST

Molecule	TSA Expression Rate (ER) [%]
B6	0
B7	15
B2	58
B3	0
B4	0
B5	0
B8	0

Same assay, conditions: HCC

Molecule	TSA Expression Rate (ER) [%]
B1	25
B2	33
B3	37
B9	0

Same assay, conditions: LUNG

Molecule	TSA Expression Rate (ER) [%]
B7	29
B1	40
B2	25

Same assay, conditions: OVARIAN

Molecule	TSA Expression Rate (ER) [%]
B6	14
B7	14
B1	7
B2	5
B3	0
B4	0
B5	0
B9	0
B8	0

Same assay, conditions: PANCREATIC

Molecule	TSA Expression Rate (ER) [%]
B4	0

Same assay, conditions: THYROID

Molecule	TSA Expression Rate (ER) [%]
B6	0
B7	0
B1	9
B3	0
B4	0
B5	0

Same assay, conditions: TSA expression rate in BLADDER cancer

Molecule	Expression Rate (ER) % [%]
B1	25

Same assay, conditions: TSA expression rate in CRC

Molecule	Expression Rate (ER) % [%]
B6	0
B7	0
B1	18
B3	2
B4	0
B5	0
B9	13
B8	0

Same assay, conditions: TSA expression rate in Cervical cancer

Molecule	Expression Rate (ER) % [%]
B6	0
B7	17
B5	33
B8	0

Same assay, conditions: TSA expression rate in Esophageal

Molecule	Expression Rate (ER) % [%]
B1	53
B9	21

Same assay, conditions: TSA expression rate in GASTRIC cancer

Molecule	Expression Rate (ER) % [%]
B1	31
B3	0
B9	7

Same assay, conditions: TSA expression rate in HEAD and NECK

Molecule	Expression Rate (ER) % [%]
B7	11
B1	38
B2	40
B3	7
B5	0
B9	12

Same assay, conditions: TSA expression rate in Kidney

Molecule	Expression Rate (ER) % [%]
B6	0
B7	14
B1	7
B3	0
B4	0
B5	0
B9	25
B8	9

Same assay, conditions: TSA expression rate in LEUKEMIAS

Molecule	Expression Rate (ER) % [%]
B1	11
B3	24
B4	4
B8	6

Same assay, conditions: TSA expression rate in LUNG cancer

Molecule	Expression Rate (ER) % [%]
B6	18
B3	4
B5	0
B8	1

Same assay, conditions: TSA expression rate in MELANOMA

Molecule	Expression Rate (ER) % [%]
B6	19
B7	6
B1	62
B2	7
B3	5
B5	6
B8	3

Same assay, conditions: TSA expression rate in PEDIATRIC

Molecule	Expression Rate (ER) % [%]
B1	60
B2	53

Same assay, conditions: TSA expression rate in PROSTATE cancer

Molecule	Expression Rate (ER) % [%]
B6	0
B7	38
B1	18
B5	0
B9	22
B8	25
